According to CN114634568A (SHENZHEN PHENPENG BIOTHERAPY CO LTD, dated 2022):

Experiments:
[1] = target: T1, hu(人)BCMA ECD His, ACRO, BCA-H522y (human, UniProt Q02223 1-54); test: ELISA, hu BCMA ECD His coated at 2 μg/mL
T1 construct: extracellular domain; Bought reagent; also called hu BCMA ECD His; BCMA抗原; not shown: His tag
T1 sequence (looked up): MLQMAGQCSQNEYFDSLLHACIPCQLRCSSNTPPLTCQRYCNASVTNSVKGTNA

[2] = target: T2, 人BCMA全长 (K562-BCMA细胞株和CHO-BCMA细胞株表面表达) (human, UniProt Q02223 1-184); test: flow cytometry on K562-BCMA and CHO-BCMA cells, APC anti-human IgG Fc
T2 construct: whole, on cells; also called BCMA表达阳性的细胞
T2 sequence (looked up): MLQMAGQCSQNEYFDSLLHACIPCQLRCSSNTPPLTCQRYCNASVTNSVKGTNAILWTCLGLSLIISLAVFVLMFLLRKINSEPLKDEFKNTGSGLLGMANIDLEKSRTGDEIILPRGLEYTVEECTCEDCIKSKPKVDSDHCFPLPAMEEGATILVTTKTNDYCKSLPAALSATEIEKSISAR

h BCMA ECD mFc = target: T3, h BCMA ECD mFc (human, UniProt Q02223 1-54); test: BLI (Fortebio), h BCMA ECD mFc 3 ug/mL loaded on AMC biosensor, antibody in solution
T3 construct: extracellular domain; also called hBCMA-mFc; not shown: mouse Fc (mFc)
T3 sequence (looked up): T1 sequence (looked up)

- binding result [1]: binds
- binding result [2]: binds
- binding result (h BCMA ECD mFc): binds
B1: 鼠源BCMA抗体 mVH-mVL (CN201911298620.7专利中5E2 BCMA抗体) (antibody, V domains shown)
VH: EVQLQQSGPELIKPGASVKMSCKASGYTFTSYVVHWVKQKPGQGLEWIGYIIPYNDDTKYNEKFKGKATLTSDKSSSTAYMELSSLTSEDSAVYYCARWDYDDGYFDYWGQGTTLTVSS
VL: DVVMTQTPLSLPVTLGDQASISCRSSQSLLHSNGNTYLHWYLQKPGQSPKLLIYKVSNRFSGVPDRFSGSGSGTDFTLKISRVEAEDLGVYFCSQITHIPFTFGSGTKLEIKR
notes: In flow cytometry the detection reagent was APC anti-human IgG Fc
